{"source": "paper PMC2739136", "test_in_all_cases": "pull-down", "key": {"[1]": {"molecular_target": "T1, MBP-TraR V146A, P33905", "T1 chain": "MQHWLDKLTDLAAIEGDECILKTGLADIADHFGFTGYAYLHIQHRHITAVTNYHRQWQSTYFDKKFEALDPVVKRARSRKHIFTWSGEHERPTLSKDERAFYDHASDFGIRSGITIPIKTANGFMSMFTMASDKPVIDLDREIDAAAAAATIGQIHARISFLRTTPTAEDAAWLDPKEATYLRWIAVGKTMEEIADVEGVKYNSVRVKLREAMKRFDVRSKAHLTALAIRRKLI"}, "[2]": {"molecular_target": "T2, MBP-TraR F161K, P33905", "T2 chain": "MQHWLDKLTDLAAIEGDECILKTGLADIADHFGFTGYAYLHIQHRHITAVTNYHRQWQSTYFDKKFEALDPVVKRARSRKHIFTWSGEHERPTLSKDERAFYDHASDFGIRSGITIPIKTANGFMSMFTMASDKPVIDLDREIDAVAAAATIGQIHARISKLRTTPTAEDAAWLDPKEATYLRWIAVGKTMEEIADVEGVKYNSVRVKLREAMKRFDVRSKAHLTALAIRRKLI"}, "[3]": {"molecular_target": "T3, MBP-TraR G153E, P33905", "T3 chain": "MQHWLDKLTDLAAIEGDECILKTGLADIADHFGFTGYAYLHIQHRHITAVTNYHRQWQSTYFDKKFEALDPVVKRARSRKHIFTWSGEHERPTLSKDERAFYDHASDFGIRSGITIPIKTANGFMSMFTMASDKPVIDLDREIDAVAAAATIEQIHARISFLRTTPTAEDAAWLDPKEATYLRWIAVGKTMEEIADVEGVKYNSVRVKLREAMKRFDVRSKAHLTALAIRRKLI"}, "[4]": {"molecular_target": "T4, MBP-TraR V146E, P33905", "T4 chain": "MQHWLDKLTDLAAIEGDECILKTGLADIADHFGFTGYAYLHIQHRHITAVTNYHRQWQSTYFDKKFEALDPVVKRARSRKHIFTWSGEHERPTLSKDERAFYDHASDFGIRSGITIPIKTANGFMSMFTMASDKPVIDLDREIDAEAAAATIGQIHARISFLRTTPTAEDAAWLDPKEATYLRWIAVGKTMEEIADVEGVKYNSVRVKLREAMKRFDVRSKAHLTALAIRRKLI"}, "[5]": {"molecular_target": "T5, MBP-TraR L5M, P33905", "T5 chain": "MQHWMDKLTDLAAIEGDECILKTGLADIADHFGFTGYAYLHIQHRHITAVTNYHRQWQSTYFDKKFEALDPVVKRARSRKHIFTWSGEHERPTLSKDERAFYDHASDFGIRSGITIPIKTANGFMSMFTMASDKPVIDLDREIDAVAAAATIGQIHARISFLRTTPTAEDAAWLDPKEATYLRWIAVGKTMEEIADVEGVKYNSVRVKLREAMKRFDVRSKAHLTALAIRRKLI"}, "[6]": {"molecular_target": "T6, MBP-TraR S160A, P33905", "T6 chain": "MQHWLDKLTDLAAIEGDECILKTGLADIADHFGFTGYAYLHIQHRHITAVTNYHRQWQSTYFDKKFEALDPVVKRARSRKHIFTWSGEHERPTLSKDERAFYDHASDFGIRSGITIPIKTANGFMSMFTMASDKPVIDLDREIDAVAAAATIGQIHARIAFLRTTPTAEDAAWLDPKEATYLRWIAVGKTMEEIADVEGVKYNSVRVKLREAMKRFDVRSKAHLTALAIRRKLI"}, "[7]": {"molecular_target": "T7, MBP-TraR R206Q, P33905", "T7 chain": "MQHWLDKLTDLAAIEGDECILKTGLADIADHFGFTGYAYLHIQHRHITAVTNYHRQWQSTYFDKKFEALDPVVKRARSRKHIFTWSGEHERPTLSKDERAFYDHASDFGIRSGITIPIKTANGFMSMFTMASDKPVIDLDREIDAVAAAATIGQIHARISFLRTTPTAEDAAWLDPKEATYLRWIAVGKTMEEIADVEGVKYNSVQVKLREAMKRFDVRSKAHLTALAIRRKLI"}, "[8]": {"molecular_target": "T8, MBP-TraR A157E, P33905", "T8 chain": "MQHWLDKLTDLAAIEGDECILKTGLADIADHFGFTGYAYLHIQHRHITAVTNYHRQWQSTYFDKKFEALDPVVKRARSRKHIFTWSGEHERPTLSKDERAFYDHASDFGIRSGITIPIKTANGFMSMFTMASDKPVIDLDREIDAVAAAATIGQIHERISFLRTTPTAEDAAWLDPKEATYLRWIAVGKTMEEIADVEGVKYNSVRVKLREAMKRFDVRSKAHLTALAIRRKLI"}}, "data": [{"protein": "native TraR (wild type) (protein) MQHWLDKLTDLAAIEGDECILKTGLADIADHFGFTGYAYLHIQHRHITAVTNYHRQWQSTYFDKKFEALDPVVKRARSRKHIFTWSGEHERPTLSKDERAFYDHASDFGIRSGITIPIKTANGFMSMFTMASDKPVIDLDREIDAVAAAATIGQIHARISFLRTTPTAEDAAWLDPKEATYLRWIAVGKTMEEIADVEGVKYNSVRVKLREAMKRFDVRSKAHLTALAIRRKLI", "values": [{"measurement": "heterodimer formation (% of wild type) (% of wild type)", "setting": "[1]", "result": 61}, {"measurement": "heterodimer formation (% of wild type) (% of wild type)", "setting": "[2]", "result": 39}, {"measurement": "heterodimer formation (% of wild type) (% of wild type)", "setting": "[3]", "result": 19}, {"measurement": "heterodimer formation (% of wild type) (% of wild type)", "setting": "[4]", "result": 52}, {"measurement": "heterodimer formation (% of wild type) (% of wild type)", "setting": "[5]", "result": 99}, {"measurement": "heterodimer formation (% of wild type) (% of wild type)", "setting": "[6]", "result": 100}, {"measurement": "heterodimer formation (% of wild type) (% of wild type)", "setting": "[7]", "result": 71}, {"measurement": "heterodimer formation (% of wild type) (% of wild type)", "setting": "[8]", "result": 48}]}]}
